From the domain aggregation screens of Martell et al. (2025)

Assay: soluble fraction after stress (log2 fold change); higher = more stays soluble; pooled small domains, quantitative proteomics
Details: stress: pH 4
Summary of the method: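 Aggregation propensity is estimated from the fold change in each domain's soluble amount after acid stress. Pooled small-domain libraries were stressed at pH 4, and higher log2 values mean more stayed soluble.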

Going from “HMTPGPYETLKPAPLGSYIEPKIGFATAIEIARKEAVQLGIKTEAGGIWYGGDFPFYNVSFFDPDD” to “HMQDLAKRWVEEFGDLLYKYTLPRVSDSGIAKDLVQETFLAAWRNIDNFKGEASEKNWLFTILKNKIIDH”, the “soluble fraction (log2)” value rises from -0.985 to -0.585.

“HMGMGDALRILFNQAMLIEREQYLQAGAYERNENPVNYANGFKAKTLNTRVGALEVAVPQTRDSAFYPSFL” and “HMPGLQSVTPAELKIGMYVILPLAWDEHPFLKNHFLIQSEAQINKIRELGTKGIQIDLSKSHP” are within 0.2 log units of each other in “soluble fraction (log2)” value: -0.163 for the first, 0.0126 for the second.

“HMSITKDNLSIGTNIRISGFSDIGRIISIPNKGNQVQVQIGSAKMNIKINSIVEIIKEEKDFNKNISN” and “HMTKTKFLSKDMILSAMSRTKSNRAAARYLSVSFVHYKKYAREYKDETSGVSLWEKHKNQSGTGIPK” are within 0.2 log units of each other in “soluble fraction (log2)” value: 0.189 for the first, 0.0318 for the second.

“HMNKKEIISVLEKIIPPSQIKNINIFGSELVIDLNIDNPSLHAKKKLEKSIMSSFDENLKIIVNFSVE” and “HMSSLTDNFVKALSYYLALSGKSKKEVADGIGIPPTTFSSWSNGKHLPDMDRLQNLATYLGAPVSEFFDFT” are within 0.2 log units of each other in “soluble fraction (log2)” value: 0.22 for the first, 0.051 for the second.

Going from “HMQRDELRYDQFLTALQNKEFTQLNVRFDDYTYLVTGTFQSGRPFSTRGPVSEEFIRLIESSGVQVTWLPM” to “HMDELPKDILRSFGLPDKPWAMELLRNLRRDGFALDGETARAYAEMAAMKPPRTDARQWMTAADVAYRRG”, the “soluble fraction (log2)” value rises from -1.28 to 0.105.

Compared with “HMDVLTARENEVLQLLAKGMSNKEIASVLVITEKTVKAHVSSILSKLNLSDRTQAALYAVKNGI”, “HMENYTYKYATSANVNIREEPNTDSTILGKTLLNTEFQVVEDVDGWSKITTEAGYAYIKSEYLSDTE” is lower in “soluble fraction (log2)” value: -0.154 for the first, -0.392 for the second.

First: HMRPTHYSGPSVIAMINNRVWFSDGSRLAPGEHHDDLEVVGLSPPWSAKVRWQGVEFDVGLFE
Second: HMEVAVQFIEFKIPENHAWIGKEIREITFPPESILVLIIRDGKKLVPNGKTVLKEGDSLILSGKASD
The “soluble fraction (log2)” value of the first is higher: -0.946 for the first, -1.61 for the second.

First: HMDIANEQEQIFITAMRNDDFNPILELKMKGYQPSKNVLKSLQPDVSSTTFIAAAKIFQMEGVL
Second: HMSLSKEEFETISKQVLELAGAGPIPVKELLQKMERTSKEKAWKVIEFLQAEDKIVPDATGRIQL
The “soluble fraction (log2)” value of the first is lower: -1.31 for the first, -0.457 for the second.

First: HMGYNDQEVKSNLITLLSTSKTGLSGVEISAQLGINRVTMTKFLNVFAAEGIIKQKNIGNLNLWLVEEGTE
Second: HMADTFVMPDLVYRRYEPVRGYFERGGFHMGAVKFEPYEGISDGTILRQNPLPGHPLRRRDVISLVVAAS
The “soluble fraction (log2)” value of the first is higher: -0.05 for the first, -0.464 for the second.

First: HMPSYYKELQNYSPENPVVKKRKVHPDVVNAIKYLAEITDGNPMLIKAYAQMILAHVFTTMPLIDKSV
Second: HMNERLKQLRLSLNLNQEEFGKWLGISKSGVSDIESGRRKVTEQHIIMLSNHNISEKWLRTGEGEMFV
The “soluble fraction (log2)” value of the first is higher: 0.22 for the first, 0.0158 for the second.

Going from “HMFSVVDKITLQEELKKLSKKEQLLIQLRYYDELNQEEIAKIFHVSQVQISRMEKKIIEKLKKQF” to “HMVVLPGEVVALKIIQTGSSKDQGVGYLEDGTMVVVDGAKNSIGKTIEIQISRSHQTVAGRMLFGIAMS”, the “soluble fraction (log2)” value falls from 0.273 to -0.0841.

Going from “HMKISIDNPSVLLDKLATLFPDTSKNKLRKMLTEGRIYVNDNIEHRAKRELINGDTVKILDKTTSKE” to “HMNKSYTVPDVRGMTVEEAQEAEGVKDIFTVHVQGTRKTDEYQPGQIVEQDPIAGRTRKSNFVIEVYVAE”, the “soluble fraction (log2)” value falls from -0.0228 to -0.237.

Going from “HMDSNISVSEALEMVDKGSVKEIIVEGEKLYITNQDGKQYTSSKEVGVSLIELMKDSGIDPIKSDVNIIVK” to “HMPSLSREREAAILEMIERRPSTAEDVASGLGLAVNEVIKLLDGTALRGSVETFQSGEEIYYTRKR”, the “soluble fraction (log2)” value rises from -0.703 to -0.294.

“HMGKAMIDWEREQSILRILLRQKALTTEQAREVYQDGMREDLSALEMGVQRGYFTHEQLREATGGE” and “HMKELTPEQLQHNWNNLRQFIDVNFSGDRLGGLNKMYDYFEERMMFAPASGKQHYHNAFAGGYVEHVMHV” are within 0.2 log units of each other in “soluble fraction (log2)” value: 0.00817 for the first, 0.0505 for the second.

Going from “HMNLNESVELGQELLSQALAQLGIRGELSPSTIDKLLAESSAKSMEELYADIGIGKRMPALVARHIFGLMD” to “HMAIMISINAKGEVAWNDQIISLDDLAQRFNAAGQQAQKPTVQLRADKESRYDMVAQVMSRASEAGLSDIA”, the “soluble fraction (log2)” value falls from -0.491 to -0.966.

First: HMTSPLQIHPNPATKHIELGLESPEVVLIKDINGKTVYQELVAPNQYIDIEHLKNGIYFIESKNKFGKLIK
Second: HMAIWAVFYKNEPFNLKSFNSLTSYPGPKYKKTSFSNPGHALNLAKKLNLTFGTEDFQVVKLTQGTIV
The “soluble fraction (log2)” value of the first is higher: 0.29 for the first, 0.00875 for the second.

Compared with “HMQAQQYYMLLMNKATSALKIEALGANSNKAHQSFGTKTAGGSAVYWGILFNSNGKIYKIVG”, “HMQKIENYDQFVQAFKRLSGLDLKLYKENQMKRRINNFINNHGFKENYDQFFQAITGNKELYNAFFKHLTI” is lower in “soluble fraction (log2)” value: -0.15 for the first, -0.395 for the second.

“HMLLTLPEDIITMVRQGTLSAGHARVLAGLESDEMKMTLARQTITNEWSVRQLENAVALMRKS” and “HMAGTKRAENIEIQKLTEVLEARLDSVGFFWPDHKAESMIMTLRNMISRLPLTEADVRVFHGIIKSLADK” are within 0.2 log units of each other in “soluble fraction (log2)” value: -0.858 for the first, -0.727 for the second.

Compared with “HMSTPVPIEGQPTENLNLRDQPSTSGKILTTIPKGKTVTILSEKNANGWYKVSYNGKTGYVSGSYFKVTK”, “HMEYMKQRLYDIIELFKRSFSPSFSEEEKKKLENVLQDDFLRKAYEQLSDEVFIEEKFREFDGY” is lower in “soluble fraction (log2)” value: -0.14 for the first, -2.28 for the second.

Going from “HMGMSQQKQSSTVRIIMQDISDANEGLMKMSQIIDAALAEGISETIVRNAISNLHRGGTIYESQTGTYQW” to “HMDYKAELDNIIRDHLDMEGPLLPVLHAVMARFSYIPKDAIPIIARKLNLSSAEVSGVISFYHDFKKEK”, the “soluble fraction (log2)” value rises from -0.392 to -0.165.

Compared with “HMGAIVTGTVVEIRSDVVIVNAGLKSEGVVPIEQFRNEAGELEVSVGDEVKVALDALEDGFGETRLS”, “HMELPPLQPGQPIDGRVEQQIRAGYYVVSVRGRGYEFQLPESARPGDLLRMVYLNDHPRLTFALLRIDNAN” is higher in “soluble fraction (log2)” value: -1.97 for the first, -0.546 for the second.

“HMIQLKEHDVVRLRETIVENDEKIPAGTRGVVLSVYDGGRAFAVEVADDRAASAIITAFRDQLEVY” and “HMLIGLNETESLVLDALIANPMRIDQVSAMLKKDVATTLKFLGGLSVRGLVETLFGGRFAPTKIALHARS” are within 0.2 log units of each other in “soluble fraction (log2)” value: -0.0481 for the first, -0.247 for the second.

“HMTQRRLQSELDSIPGVGAGTRTKLLRTLGSVDAVLRASEAELLAAGANRRQVASIQAHAAAVER” and “HMTGIESVKPSSDFTVEGNRIVAGDAEVEVYDLAGRKVNNNNLTTGVYIAKIAGSAESVKVFV” are within 0.2 log units of each other in “soluble fraction (log2)” value: 0.0567 for the first, 0.22 for the second.

“HMLSAEAAAARTAISTLSEDQQRVLGLSIQRGLVHEQIARATGLPLGTVKTHIRRGLIKVREALEAQAAG” and “HMGSLVQTAMQAVTKHIHDNAMRVGDTLPGEGHFAETLGVSRAVMREAFGALAALKLIDVGNGRKPRVGR” are within 0.2 log units of each other in “soluble fraction (log2)” value: 0.0049 for the first, 0.091 for the second.

Compared with “HMNSKIIVESIIKSKNGIAKVADLVEGGVSRQSIKKMYADGYIKRISRGYYTLTSEPVSSDEQVISS”, “HMRDVVVVPDLSGLTQMEALSKLDAESLNIGEINYGVSEMPEGVIFKQDPVYGTELMKGDTVDIFISGR” is lower in “soluble fraction (log2)” value: 0.39 for the first, -0.709 for the second.

First: HMRKIGDVLRLHAGGLSKRRIAVSLNIGRTAVGDYISRARRAGLGWPLPEDLSEEALERLLFPPP
Second: HMDRSLYVGDAVGFDSARGLMEIEVKNKFSVVAVSLKKKPSGNFITPLLRMEKKKGEAVTVAPGSGHR
The “soluble fraction (log2)” value of the first is higher: 0.151 for the first, -0.141 for the second.

Compared with “HMESRLQAAIALRKAGEHEQSREALKILADEPALRAQALLNIAWSFDNQGHERDAEGYYLAAIE”, “HMRLLAESIARGLDPEGSGGLWAKEAGAEALKLMETLAAEAPHGGSFTAAAYRDLFESLVHQGEVREA” is lower in “soluble fraction (log2)” value: 0.127 for the first, -0.335 for the second.

Compared with “HMTYPGSIALVNPKHEAFVQHYVATSGSRGQAAKLAGVTTTTARNLLQDVEATARIRYLNAQQFQ”, “HMIRQGTKQALLIEMLQRPEGASITEIVEATSWQAHTARGAISGALKKKLGLPITSEKHPERGTVYKL” is lower in “soluble fraction (log2)” value: 0.22 for the first, -0.55 for the second.

First: HMIKNDIGKFIKLYRETHQWSQRELAEHLGVSQRNVSYYEKGERIPPADVLKKLSTLFDVPVDVLLGLK
Second: HMFDENVKLIENEYDVSIISRGSELKVMGDVENVDKAARALRSMLAMINKGESLTEQNVRYVLTLVNEGNE
The “soluble fraction (log2)” value of the first is higher: -0.274 for the first, -1.38 for the second.

Going from “HMTVPDVKGMGARDAVFLLETLGFKVRINGIGQVYEQSIDPGKSYSKGEFISLRL” to “HMPAGWIPARIRLADYPQLRSLAWHVQGIDTLTPTEALDIYERNARHLDAQAMSAQEQDLLASLRLALS”, the “soluble fraction (log2)” value falls from -0.81 to -1.06.

“HMSGIVPAAPPLRPDLDIKWHTGDKVRHAKWGEGTIVSVKGEGEETELKIAFPGQGIRPFMQKYAPITR” and “HMSEKRLHLVVDESDVNTRIDKYIADELDGYSRSFIQKLIKDNNVLVNGRAVKPNYNIGISDNIDIVLPKL” are within 0.2 log units of each other in “soluble fraction (log2)” value: 0.214 for the first, 0.188 for the second.

Going from “HMDSLIEYENERSLRRLINENLSDYERTVWWLYYAGADAAHIAEQTGRSKRSAENAITRVRRKLRALITQS” to “HMEIMELPEYVVRSGSGLDAFREKWDLWDQGLMYDLKDKRAVFPIFIDGVMIDAVGRALAGAEPKWLRYTG”, the “soluble fraction (log2)” value falls from -0.188 to -0.554.

Compared with “HMNSSLFLARQVHALRKKAGLTLQQLSRKSDVSVSTLSKIEKGQLSPTYEKIVSLARGLDVPIAALFHE”, “HMDNLSESQIKAYSSILSRTHEISDLAENKDYLAFSLWIANILRDPQSVREETAKRVFSALHTNTDFK” is lower in “soluble fraction (log2)” value: ≥ 0.43 for the first, -0.793 for the second.

First: HMDGIRLYPGLMIEHKNFGRGQVVSVNRERGTFTAFFGKNGTRTLTIQILKTDTVRPLASQKAGK
Second: HMSGRSVSYSEFMSRVEAGQVSSVTLDGERVEVTGSDGSRYVTIAPSDATLTDKLVAKGVEVRADP
The “soluble fraction (log2)” value of the first is lower: -0.405 for the first, 0.196 for the second.

Going from “HMSTYTETETAYLKAYSAAGVDGKISDSERGILNMTAEALGITVERTTELEAMFNLTVEEEA” to “HMQIIETTVGRVLFNEKVPEAAGYINEVLTKKSLRDIIHGILKKTSVPETAAFLDEIKSLGYNFAF”, the “soluble fraction (log2)” value rises from -1.39 to -0.264.

Going from “HMSGTFIGGELVKPGEPLTPMQRAAITMGLQMGNTYSPEIMEKYNNAGGSPSKEEFENYQKNKS” to “HMAASEAESIRILLSEGVDRVHLRKPQSAEADMRRLIEALPPELYPRLTLQDHLHLAGEYGT”, the “soluble fraction (log2)” value falls from 0.22 to -0.162.

Compared with “HMYIEKTAYINDTAVNVRKSATTDSDVIKVLALNTEITIIGEENDWYKVKSGNDIGYIAKRLVSDQKKE”, “HMDRMFQPETWSKIYQWVMNDPQVPDKEDVLALIRRHFGNFEKLIKLLHYLDGGKPYAYLSEH” is higher in “soluble fraction (log2)” value: -0.109 for the first, 0.411 for the second.

With “HMDEQLAWLYRKINAFSEIDKALILLYLEDKKYDEIAETLGISSVNARVKMNRIKKRLKEMINDR” the “soluble fraction (log2)” value was -1.02.
